For this assay, the target named is acetylcholine receptor (Homo sapiens, UniProt P02708). Nature of the assay: SPR binding affinity (RU) of optimized 5mer/6mer/7mer peptides, Examples 6-7. Particulars: SPR, Resonance Units; 5mer Bottom sequence (bottom combinations); peptides tested at 10 μM. A digest of the protocol:
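SPR, peptides at 10 μM; read-out = response units (RU). Sequences drawn from top- or bottom-frequency amino acid combinations, 5mer/6mer-1/6mer-2 libraries.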
For orientation: Surface plasmon resonance follows binding to a sensor surface in real time, without labels.

acetylcholine receptor, sequence (P02708 21-457): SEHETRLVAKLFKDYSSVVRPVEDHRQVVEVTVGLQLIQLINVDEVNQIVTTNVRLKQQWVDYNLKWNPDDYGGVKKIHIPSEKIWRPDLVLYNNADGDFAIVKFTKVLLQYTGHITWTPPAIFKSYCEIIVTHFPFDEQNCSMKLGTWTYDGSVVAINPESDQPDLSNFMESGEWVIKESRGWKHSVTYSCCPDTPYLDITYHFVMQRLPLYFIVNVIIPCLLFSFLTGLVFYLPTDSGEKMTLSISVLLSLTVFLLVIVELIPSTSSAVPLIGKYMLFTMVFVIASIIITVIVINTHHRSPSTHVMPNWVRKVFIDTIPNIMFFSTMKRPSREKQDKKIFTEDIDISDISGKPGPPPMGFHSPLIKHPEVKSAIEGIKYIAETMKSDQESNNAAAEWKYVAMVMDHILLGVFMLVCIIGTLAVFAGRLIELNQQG

As to 5mer-926 (RNCWK), the Binding affinity is 22 Ru.
On to 5mer-927 (RDEDR), for which the Binding affinity was 19 Ru.
On to 5mer-928 (KHMVR), for which the Binding affinity is listed as 27 Ru.
Take 5mer-929 (KYTFR): the Binding affinity was found to be 28 Ru.
Turning to 5mer-930 (RAWVR), the Binding affinity was 20 Ru.
For the substance 5mer-931 (RITER), the Binding affinity was found to be 11 Ru.
For 5mer-932 (RTAWK) the value was 27 Ru; for 5mer-933 (RYMKK), 27 Ru; for 5mer-934 (KMMMR), 17 Ru.
For the substance 5mer-935 (RETFK), the Binding affinity came to 32 Ru.
For 5mer-936 (RNHKR), the Binding affinity was 29 Ru.
For the substance 5mer-937 (KASNR), the Binding affinity is 21 Ru.
As for 5mer-938 (RIEFK), the Binding affinity is given as 18 Ru.
The same measure for 5mer-939 (KMHAR): 24 Ru.
5mer-940 (KCMGK): the Binding affinity was 18 Ru.
The same measure for 5mer-941 (KNHHR): 21 Ru; for 5mer-942 (RPSDR): 11 Ru; for 5mer-943 (KDKGK): 12 Ru.
For the substance 5mer-944 (RYEFK), the Binding affinity is 25 Ru.
Regarding 5mer-945 (RYEKR), the Binding affinity was 23 Ru.
The same measure for 5mer-946 (KYPWR): 32 Ru; for 5mer-947 (KDWIR): 27 Ru; for 5mer-948 (KDSFK): 18 Ru.
The same measure for 5mer-949 (KMKMK): 26 Ru; for 5mer-950 (KDADR): 22 Ru.
For the substance 5mer-951 (RYMGR), the Binding affinity was 18 Ru.
Regarding 5mer-952 (KTMHK), the Binding affinity turned out to be 12 Ru.
The same measure for 5mer-953 (RKMAR): 23 Ru.
For 5mer-954 (KTEVK) the value was 23 Ru; for 5mer-955 (KNADK), 14 Ru; for 5mer-956 (KPTWK), 19 Ru.
The same measure for 5mer-957 (RDCER): 30 Ru; for 5mer-958 (RKWKR): 11 Ru.
5mer-959 (KPNMK): the Binding affinity is listed as 29 Ru.
The same measure for 5mer-960 (RNPGK): 14 Ru; for 5mer-961 (KIANR): 32 Ru; for 5mer-962 (RIWKR): 23 Ru.
Turning to 5mer-963 (RAPNK), the Binding affinity is on record as 24 Ru.
For 5mer-964 (KYTDR), the Binding affinity is reported as 22 Ru.
For 5mer-965 (KMEIR) the value was 30 Ru; for 5mer-966 (RPSAK), 32 Ru; for 5mer-967 (KKTHK), 26 Ru.
For 5mer-968 (RIPHR), the Binding affinity was determined as 11 Ru.
The same measure for 5mer-969 (RNTVR): 27 Ru.
As to 5mer-970 (KYMNR), the Binding affinity stood at 33 Ru.
For 5mer-971 (KMTGK) the value was 12 Ru; for 5mer-972 (KYAKR), 14 Ru.
On to 5mer-973 (RYWAR), for which the Binding affinity came out at 12 Ru.
Take 5mer-974 (RHMMR): the Binding affinity worked out at 26 Ru.
Consider 5mer-975 (RFAHK), for which the Binding affinity turned out to be 18 Ru.
For 5mer-976 (RETNR) the value was 16 Ru; for 5mer-977 (KNMIR), 16 Ru; for 5mer-978 (RYDHK), 30 Ru.
For 5mer-979 (RHHMK), the Binding affinity was 23 Ru.
For 5mer-980 (RKPHR) the value was 33 Ru.
For 5mer-981 (KNDKK) the value was 33 Ru; for 5mer-982 (KFMHK), 12 Ru; for 5mer-983 (RTTGR), 23 Ru.
For 5mer-984 (KNAHK) the value was 11 Ru; for 5mer-985 (RDPKR), 17 Ru; for 5mer-986 (RPMDK), 12 Ru.
For the substance 5mer-987 (RAHWR), the Binding affinity stood at 22 Ru.
As for 5mer-988 (RCKWR), the Binding affinity was determined as 17 Ru.
Consider 5mer-989 (RCTAR), for which the Binding affinity amounted to 31 Ru.
The same measure for 5mer-990 (KEEPK): 12 Ru; for 5mer-991 (RPEFR): 24 Ru; for 5mer-992 (RNDKK): 15 Ru.
The same measure for 5mer-993 (KEKFR): 27 Ru; for 5mer-994 (KAWVR): 26 Ru; for 5mer-995 (KFTDK): 18 Ru.
The same measure for 5mer-996 (RMTKK): 32 Ru; for 5mer-997 (RYPHR): 30 Ru; for 5mer-998 (RCTAK): 18 Ru.
With 5mer-999 (KTKFK), the Binding affinity was 19 Ru.
For 5mer-1000 (KHCWR) the value was 20 Ru.
With 5mer-1001 (KPCGK), the Binding affinity was found to be 33 Ru.
The same measure for 5mer-1002 (KEDNK): 12 Ru.
For the substance 5mer-1003 (RMTVR), the Binding affinity amounted to 11 Ru.
The same measure for 5mer-1004 (RDADR): 30 Ru; for 5mer-1005 (RTHGR): 30 Ru; for 5mer-1006 (KEPER): 17 Ru.
For 5mer-1007 (RDMMR) the value was 30 Ru; for 5mer-1008 (KDSNR), 11 Ru.
For 5mer-1009 (KMCAK) the value was 29 Ru; for 5mer-1010 (KCDNK), 16 Ru.
On to 5mer-1011 (KTDMK), for which the Binding affinity was found to be 25 Ru.
For 5mer-1012 (RHKVR) the value was 22 Ru; for 5mer-1013 (KCCVK), 19 Ru.
For 5mer-1014 (RKNKR) the value was 23 Ru; for 5mer-1015 (RCWMK), 30 Ru; for 5mer-1016 (KYTMR), 28 Ru.
The same measure for 5mer-1017 (RCTWK): 24 Ru; for 5mer-1018 (KFWAK): 20 Ru.
Consider 5mer-1019 (RFKFK), for which the Binding affinity is listed as 28 Ru.
For the substance 5mer-1020 (KCKVK), the Binding affinity amounted to 12 Ru.
With 5mer-1021 (KITHK), the Binding affinity came to 26 Ru.
For 5mer-1022 (KIADK) the value was 29 Ru; for 5mer-1023 (RYCKK), 13 Ru.
For 5mer-1024 (KIDNK) the value was 26 Ru; for 5mer-1025 (RHKWK), 25 Ru.
As to 5mer-1026 (RNAVR), the Binding affinity amounted to 20 Ru.
Regarding 5mer-1027 (KNTNR), the Binding affinity came to 28 Ru.
For 5mer-1028 (RMAMR) the value was 28 Ru; for 5mer-1029 (KADIK), 25 Ru.
The same measure for 5mer-1030 (RISDK): 18 Ru; for 5mer-1031 (RKEER): 13 Ru; for 5mer-1032 (RHHMR): 23 Ru.
The same measure for 5mer-1033 (REWDK): 28 Ru; for 5mer-1034 (RFAKK): 14 Ru.
For 5mer-1035 (KEHVR), the Binding affinity is 19 Ru.
For 5mer-1036 (KTHMK) the value was 23 Ru.
The same measure for 5mer-1037 (KKSFR): 28 Ru; for 5mer-1038 (KCCKR): 17 Ru.
5mer-1039 (KKDVK): the Binding affinity is reported as 32 Ru.
Take 5mer-1040 (KTPWR): the Binding affinity is recorded as 17 Ru.
For 5mer-1041 (RDWFK) the value was 27 Ru; for 5mer-1042 (RCCAK), 28 Ru; for 5mer-1043 (KFEMK), 15 Ru.
Take 5mer-1044 (RDCFK): the Binding affinity was found to be 22 Ru.
For 5mer-1045 (KMDEK) the value was 22 Ru; for 5mer-1046 (KHTMR), 19 Ru; for 5mer-1047 (KAHMR), 23 Ru.
On to 5mer-1048 (KYDNK), for which the Binding affinity stood at 12 Ru.
For 5mer-1049 (KPPGR) the value was 29 Ru.
For 5mer-1050 (KPEDR) the value was 31 Ru; for 5mer-1051 (RYAHR), 28 Ru; for 5mer-1052 (RNDWR), 17 Ru.
As for 5mer-1053 (KHEHK), the Binding affinity amounted to 27 Ru.
For 5mer-1054 (RNKVR) the value was 21 Ru; for 5mer-1055 (KHHEK), 15 Ru.
The same measure for 5mer-1056 (RCTPK): 11 Ru.
For 5mer-1057 (RFDPK) the value was 13 Ru; for 5mer-1058 (KIPWR), 25 Ru; for 5mer-1059 (RMAGR), 29 Ru.
Turning to 5mer-1060 (KTHIK), the Binding affinity amounted to 29 Ru.
For 5mer-1061 (KDSFR) the value was 24 Ru; for 5mer-1062 (RAPWR), 24 Ru; for 5mer-1063 (RPHVK), 20 Ru.
The same measure for 5mer-1064 (KCMKR): 20 Ru; for 5mer-1065 (KNPIR): 18 Ru; for 5mer-1066 (RFWVK): 25 Ru.

For the origin of these results see patent US20250011363A1, “OPTIMIZED SHORTENED PEPTIDE THAT BINDS TO ACETYLCHOLINE RECEPTOR, AND USE THEREOF” (SKINMED CO., LTD., priority 2021, published 2025).
